Measurements: the supplement of paper PMC10065799, “High-throughput profiling of sequence recognition by tyrosine kinases and SH2 domains using bacterial peptide display” (eLife, 2023)

Experiments:
[1] = biological target: FGFR3 (UniProt P22607); test: phosphorylation enrichment, bacterial display (enrichment ratio); higher = better substrate or ligand; peptides without Tyr show the background
[2] = tested on: c-Src; test: as above
[3] = tested on: AncSZ; test: as above
[4] = biological target: MERTK (UniProt Q12866); test: as above
[5] = biological target: Jak2 (UniProt O60674); test: as above
[6] = biological target: Hck (UniProt P08631); test: as above
[7] = biological target: EPHB1 (UniProt P54762); test: as above
[8] = biological target: Fes (UniProt P07332); test: as above
[9] = biological target: EPHB2 (UniProt P29323); test: as above
[10] = tested on: c-Abl (mouse); test: as above
[11] = biological target: Fyn (UniProt P06241); test: as above
[12] = biological target: FGFR1 (UniProt P11362); test: as above
[13] = tested on: Fer (mouse); test: as above
[14] = biological target: c-Src SH2; test: SH2 binding enrichment of the phosphorylated peptide, bacterial display (enrichment ratio); higher = better substrate or ligand; peptides without Tyr show the background
[15] = biological target: SHP2-C SH2; test: as above
[16] = biological target: Grb2 SH2 (UniProt P62993); test: as above
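Throughout, for SH2 binding enrichment of the phosphorylated peptide, bacterial display: peptide library displayed on the E. coli surface as eCPX fusions, selected cells deep-sequenced, score is each peptide's frequency after selection divided by its frequency in the input.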
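Throughout, for phosphorylation enrichment, bacterial display: 11-residue human phosphosite peptides and single-mutation variants displayed on the E. coli surface, counted by deep sequencing, each peptide's frequency after selection divided by its frequency in the unselected input library; frequency after pTyr selection over input frequency; kinase dosed for 20-30% of maximal phosphorylation in three min.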

Sequence of FGFR3 (P22607 whole entry, looked up): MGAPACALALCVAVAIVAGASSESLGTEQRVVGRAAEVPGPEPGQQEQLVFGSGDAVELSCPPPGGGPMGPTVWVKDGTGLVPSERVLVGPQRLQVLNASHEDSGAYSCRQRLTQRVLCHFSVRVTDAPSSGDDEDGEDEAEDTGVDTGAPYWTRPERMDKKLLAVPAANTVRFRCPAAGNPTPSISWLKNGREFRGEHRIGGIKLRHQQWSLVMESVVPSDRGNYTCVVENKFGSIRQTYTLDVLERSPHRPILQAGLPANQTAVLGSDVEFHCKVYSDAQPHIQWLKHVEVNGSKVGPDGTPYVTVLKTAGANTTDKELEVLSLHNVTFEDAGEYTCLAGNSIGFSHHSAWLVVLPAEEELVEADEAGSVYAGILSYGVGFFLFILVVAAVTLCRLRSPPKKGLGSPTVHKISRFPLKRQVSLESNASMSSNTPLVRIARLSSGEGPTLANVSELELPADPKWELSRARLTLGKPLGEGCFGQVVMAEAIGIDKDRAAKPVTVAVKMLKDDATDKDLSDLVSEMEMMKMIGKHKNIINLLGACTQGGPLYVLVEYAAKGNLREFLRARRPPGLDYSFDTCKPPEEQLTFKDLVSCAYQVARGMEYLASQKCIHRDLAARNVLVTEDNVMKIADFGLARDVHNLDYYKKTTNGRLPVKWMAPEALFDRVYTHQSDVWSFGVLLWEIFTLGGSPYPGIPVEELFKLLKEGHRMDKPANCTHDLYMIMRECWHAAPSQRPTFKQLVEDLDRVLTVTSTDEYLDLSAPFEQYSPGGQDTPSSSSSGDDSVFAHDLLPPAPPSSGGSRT
Sequence of Hck (P08631 whole entry, looked up): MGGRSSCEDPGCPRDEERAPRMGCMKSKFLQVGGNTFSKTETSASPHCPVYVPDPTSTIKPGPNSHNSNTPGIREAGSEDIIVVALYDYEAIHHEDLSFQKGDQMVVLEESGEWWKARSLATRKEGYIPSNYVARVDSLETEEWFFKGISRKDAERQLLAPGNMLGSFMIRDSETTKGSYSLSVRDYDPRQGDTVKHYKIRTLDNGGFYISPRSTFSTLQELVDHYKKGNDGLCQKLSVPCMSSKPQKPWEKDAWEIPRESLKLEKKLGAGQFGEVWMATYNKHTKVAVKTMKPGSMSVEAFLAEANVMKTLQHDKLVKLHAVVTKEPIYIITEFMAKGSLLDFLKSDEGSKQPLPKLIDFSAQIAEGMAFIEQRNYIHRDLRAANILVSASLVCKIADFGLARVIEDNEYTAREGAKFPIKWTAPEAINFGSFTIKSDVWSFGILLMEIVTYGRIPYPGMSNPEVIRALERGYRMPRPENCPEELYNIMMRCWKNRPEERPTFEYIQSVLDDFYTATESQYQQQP
Sequence of MERTK (Q12866 whole entry, looked up): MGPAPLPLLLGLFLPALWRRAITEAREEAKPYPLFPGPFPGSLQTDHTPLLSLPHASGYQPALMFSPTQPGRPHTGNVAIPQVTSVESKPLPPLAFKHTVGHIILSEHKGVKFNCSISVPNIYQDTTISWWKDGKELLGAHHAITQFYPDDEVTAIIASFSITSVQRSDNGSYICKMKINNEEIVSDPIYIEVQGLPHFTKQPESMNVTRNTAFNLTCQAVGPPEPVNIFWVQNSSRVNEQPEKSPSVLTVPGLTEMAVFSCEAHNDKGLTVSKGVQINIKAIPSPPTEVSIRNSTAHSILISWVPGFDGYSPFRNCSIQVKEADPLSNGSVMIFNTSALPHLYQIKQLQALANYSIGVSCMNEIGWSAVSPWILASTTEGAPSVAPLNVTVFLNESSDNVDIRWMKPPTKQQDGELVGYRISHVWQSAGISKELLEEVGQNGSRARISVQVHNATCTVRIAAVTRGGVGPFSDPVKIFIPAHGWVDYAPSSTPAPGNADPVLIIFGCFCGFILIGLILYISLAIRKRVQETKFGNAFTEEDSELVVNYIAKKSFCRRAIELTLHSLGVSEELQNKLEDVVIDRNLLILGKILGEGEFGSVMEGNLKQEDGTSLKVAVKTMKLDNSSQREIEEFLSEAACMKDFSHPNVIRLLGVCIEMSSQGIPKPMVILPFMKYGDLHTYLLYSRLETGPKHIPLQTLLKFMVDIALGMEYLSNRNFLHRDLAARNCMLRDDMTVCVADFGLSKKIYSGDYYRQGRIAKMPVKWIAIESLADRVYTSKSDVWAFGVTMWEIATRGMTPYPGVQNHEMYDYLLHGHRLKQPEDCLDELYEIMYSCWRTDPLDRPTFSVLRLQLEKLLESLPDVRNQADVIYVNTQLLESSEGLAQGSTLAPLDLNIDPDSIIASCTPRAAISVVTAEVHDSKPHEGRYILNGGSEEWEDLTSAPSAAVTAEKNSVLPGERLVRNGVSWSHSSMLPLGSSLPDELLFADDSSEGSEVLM
Sequence of Grb2 SH2 (P62993 whole entry, looked up, the tested form may be a part): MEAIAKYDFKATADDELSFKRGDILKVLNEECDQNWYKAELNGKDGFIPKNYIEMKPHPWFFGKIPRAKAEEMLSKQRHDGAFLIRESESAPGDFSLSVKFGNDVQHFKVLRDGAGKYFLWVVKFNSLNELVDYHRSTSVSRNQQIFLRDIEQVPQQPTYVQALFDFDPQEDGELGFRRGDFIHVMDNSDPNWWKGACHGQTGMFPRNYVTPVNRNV
Sequence of EPHB2 (P29323 whole entry, looked up): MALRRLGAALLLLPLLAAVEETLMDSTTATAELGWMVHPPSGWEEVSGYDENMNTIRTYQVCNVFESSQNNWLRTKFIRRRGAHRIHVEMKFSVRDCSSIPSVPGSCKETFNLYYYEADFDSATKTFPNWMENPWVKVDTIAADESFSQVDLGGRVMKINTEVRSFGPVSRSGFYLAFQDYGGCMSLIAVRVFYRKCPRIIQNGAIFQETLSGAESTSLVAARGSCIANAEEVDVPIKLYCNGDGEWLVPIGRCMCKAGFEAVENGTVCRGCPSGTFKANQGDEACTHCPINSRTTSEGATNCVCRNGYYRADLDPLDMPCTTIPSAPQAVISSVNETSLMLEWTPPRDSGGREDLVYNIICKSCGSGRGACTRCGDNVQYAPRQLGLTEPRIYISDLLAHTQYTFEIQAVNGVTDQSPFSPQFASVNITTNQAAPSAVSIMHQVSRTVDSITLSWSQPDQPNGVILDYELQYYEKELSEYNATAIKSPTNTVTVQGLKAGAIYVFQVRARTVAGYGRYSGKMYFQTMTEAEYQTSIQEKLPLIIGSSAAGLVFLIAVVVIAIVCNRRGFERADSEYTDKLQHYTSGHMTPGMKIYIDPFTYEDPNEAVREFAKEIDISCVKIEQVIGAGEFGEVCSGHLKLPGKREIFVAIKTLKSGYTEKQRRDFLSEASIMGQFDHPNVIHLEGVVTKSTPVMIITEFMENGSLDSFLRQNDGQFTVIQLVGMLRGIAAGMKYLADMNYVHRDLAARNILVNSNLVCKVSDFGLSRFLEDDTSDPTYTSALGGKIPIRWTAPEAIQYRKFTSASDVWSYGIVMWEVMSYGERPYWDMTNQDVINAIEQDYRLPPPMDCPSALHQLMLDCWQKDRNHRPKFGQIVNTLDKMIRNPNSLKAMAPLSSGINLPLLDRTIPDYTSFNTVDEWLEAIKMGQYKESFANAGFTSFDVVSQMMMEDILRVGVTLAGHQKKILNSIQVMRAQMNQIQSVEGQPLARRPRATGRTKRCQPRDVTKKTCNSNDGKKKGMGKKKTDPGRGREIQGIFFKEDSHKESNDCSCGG
Sequence of Jak2 (O60674 whole entry, looked up): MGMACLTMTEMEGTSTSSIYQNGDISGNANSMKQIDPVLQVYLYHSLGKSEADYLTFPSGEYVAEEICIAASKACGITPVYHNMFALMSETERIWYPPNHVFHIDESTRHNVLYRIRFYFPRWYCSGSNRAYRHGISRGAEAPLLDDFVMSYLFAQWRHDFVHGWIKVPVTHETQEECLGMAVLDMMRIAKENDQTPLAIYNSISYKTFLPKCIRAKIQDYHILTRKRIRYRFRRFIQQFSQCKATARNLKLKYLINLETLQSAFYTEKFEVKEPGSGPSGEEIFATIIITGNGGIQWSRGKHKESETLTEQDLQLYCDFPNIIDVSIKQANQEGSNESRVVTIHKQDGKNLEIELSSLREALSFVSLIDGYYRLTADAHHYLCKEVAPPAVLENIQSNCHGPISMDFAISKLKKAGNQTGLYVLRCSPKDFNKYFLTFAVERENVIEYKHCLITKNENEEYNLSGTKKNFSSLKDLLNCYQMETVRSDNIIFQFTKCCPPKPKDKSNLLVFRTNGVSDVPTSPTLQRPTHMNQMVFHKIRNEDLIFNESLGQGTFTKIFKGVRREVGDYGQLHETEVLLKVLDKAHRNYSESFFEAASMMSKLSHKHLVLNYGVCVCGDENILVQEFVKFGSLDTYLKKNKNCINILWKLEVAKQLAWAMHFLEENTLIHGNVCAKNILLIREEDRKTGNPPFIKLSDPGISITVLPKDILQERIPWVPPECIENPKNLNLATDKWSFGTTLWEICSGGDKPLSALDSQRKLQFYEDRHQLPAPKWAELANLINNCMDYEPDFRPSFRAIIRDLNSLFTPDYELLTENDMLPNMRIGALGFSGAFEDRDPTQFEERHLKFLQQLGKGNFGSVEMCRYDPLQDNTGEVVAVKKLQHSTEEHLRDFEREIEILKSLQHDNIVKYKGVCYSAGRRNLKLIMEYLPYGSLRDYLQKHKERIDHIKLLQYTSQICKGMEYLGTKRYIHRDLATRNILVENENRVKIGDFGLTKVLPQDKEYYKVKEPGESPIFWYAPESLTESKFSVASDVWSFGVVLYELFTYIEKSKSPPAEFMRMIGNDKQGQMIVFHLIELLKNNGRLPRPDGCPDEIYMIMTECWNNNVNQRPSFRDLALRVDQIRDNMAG

| Sequence | phosphorylation enrichment [1] | phosphorylation enrichment [2] | phosphorylation enrichment [3] | phosphorylation enrichment [4] | phosphorylation enrichment [5] | phosphorylation enrichment [6] | phosphorylation enrichment [7] | phosphorylation enrichment [8] | phosphorylation enrichment [9] | phosphorylation enrichment [10] | phosphorylation enrichment [11] | phosphorylation enrichment [12] | phosphorylation enrichment [13] | SH2 binding enrichment [14] | SH2 binding enrichment [15] | SH2 binding enrichment [16] |
| --- | --- | --- | --- | --- | --- | --- | --- | --- | --- | --- | --- | --- | --- | --- | --- | --- |
| HNVPIYEGFGL [ACTA1_Y168_A172G_YF] | 0.519 | 8.62 | 1.35 | 12.1 | 0.575 | 13.5 | 24.2 | 4.3 | 27.6 | 7.97 | 14.9 | 0.507 | 18.8 | 0.513 | 0.823 | 0.85 |
| HTDDGYMPMSP [IRS1_Y612] | 0.757 | 0.503 | 1.94 | 0.883 | 1.37 | 0.834 | 0.787 | 1.59 | 0.756 | 1.04 | 0.839 | 1.45 | 0.824 | 2.53 | 0.882 | 0.771 |
| HTVVSYAEVRA [CLOCK_Y378] | 0.599 | 0.742 | 1.12 | 0.509 | 0.779 | 0.899 | 0.627 | 1.23 | 0.809 | 0.781 | 0.897 | 0.62 | 0.52 | 3.25 | 27.9 | 0.721 |
| HVIKLYGACSQ [RET_Y791] | 0.84 | 0.713 | 1.13 | 0.423 | 1.6 | 0.661 | 0.875 | 1.58 | 0.768 | 1.1 | 0.489 | 0.627 | 0.545 | 0.537 | 0.763 | 0.643 |
| IDPFTYTPFGS [CYP3A4_Y432_I431T_YF] | 0.523 | 2.88 | 0.724 | 0.561 | 0.755 | 1.18 | 0.431 | 0.851 | 0.705 | 0.581 | 0.91 | 0.486 | 0.587 | 0.597 | 0.863 | 0.746 |
| IDPYTYTPFGS [CYP3A4_Y432_I431T] | 2.25 | 6.82 | 1.3 | 1.16 | 0.907 | 3.36 | 0.563 | 0.914 | 0.6 | 0.63 | 7.04 | 3.24 | 0.698 | 1.17 | 0.885 | 0.92 |
| IEELTYIIKQD [STX5_Y137] | 0.665 | 0.554 | 1.33 | 0.469 | 1.25 | 0.528 | 0.55 | 1.52 | 0.578 | 0.801 | 0.461 | 0.551 | 0.411 | 0.404 | 0.779 | 0.712 |
| IEPGIYIPEDD [XPNPEP3_Y455] | 0.902 | 0.702 | 1.23 | 0.558 | 1.24 | 0.592 | 0.598 | 1.38 | 0.523 | 1.05 | 0.59 | 0.521 | 0.576 | 0.454 | 0.819 | 0.802 |
| IEPVIYVVQRR [ANOS1_Y217] | 0.475 | 0.356 | 1.37 | 0.531 | 1.1 | 0.315 | 0.209 | 1.23 | 0.486 | 0.58 | 0.304 | 0.368 | 0.271 | 0.255 | 0.236 | 0.512 |
| IFHENYNAGTF [CFI_Y421_YF] | 0.465 | 0.456 | 0.612 | 0.415 | 0.615 | 0.417 | 0.36 | 0.647 | 0.388 | 0.578 | 0.461 | 0.473 | 0.435 | 0.479 | 0.684 | 0.869 |
| IFRASYFRRGD [LTK_Y676_YF] | 0.469 | 0.582 | 0.923 | 0.571 | 0.668 | 0.613 | 0.431 | 0.879 | 0.438 | 0.63 | 0.512 | 0.465 | 0.439 | 0.315 | 0.509 | 0.382 |
| IGDENYGEGSS [ACO2_Y665] | 0.738 | 0.522 | 1.25 | 0.586 | 1.39 | 0.59 | 0.511 | 1.18 | 0.606 | 0.882 | 0.529 | 0.533 | 0.518 | 0.449 | 0.86 | 0.814 |
| IGEGTSGVVFK [CDK2_Y15_Y15S_YF] | 0.561 | 0.405 | 0.66 | 0.409 | 0.582 | 0.449 | 0.418 | 0.878 | 0.457 | 0.501 | 0.365 | 0.339 | 0.382 | 0.515 | 0.786 | 0.844 |
| IGEGTYRQVFK [CDK13_Y716_G717R_YF] | 0.654 | 0.386 | 0.693 | 0.348 | 0.715 | 0.634 | 0.603 | 0.973 | 0.582 | 0.558 | 0.485 | 0.488 | 0.474 | 0.41 | 0.505 | 0.732 |
| IHFPPYTDWNQ [ALDH3B2_Y365_YF] | 0.685 | 0.52 | 1.01 | 0.431 | 0.894 | 0.519 | 0.695 | 1.03 | 0.524 | 0.687 | 0.526 | 0.659 | 1.04 | 0.821 | 0.736 | 0.979 |
